Assay [1] addresses T1, SARS-CoV-1 Spike on pseudovirus (SARS-CoV-1, UniProt P59594 14-1255). Briefly: cell-based or functional assay.
The target of assay [2] is T2, WIV1 Spike on pseudovirus (WIV1 (bat SARS-like coronavirus)). Briefly: cell-based or functional assay.
Assay [3] addresses T1, SARS-CoV-1 Spike on pseudovirus. As to the kind of experiment: cell-based or functional assay. The source holds these as a separate data set.
Assay [4] has as its target T2, WIV1 Spike on pseudovirus. Briefly: cell-based or functional assay. The source holds these as a separate data set.
Assay [5] addresses T1, SARS-CoV-1 Spike on pseudovirus. Briefly: cell-based or functional assay. This is another data set of the same source.
The target of assay [6] is T2, WIV1 Spike on pseudovirus. Briefly: cell-based or functional assay. The source holds these as a separate data set.
Assay [7] concerns the target T3, MERS spike trimer (recombinant, negative control) (MERS, UniProt K9N5Q8 18-1296).
T3 sequence: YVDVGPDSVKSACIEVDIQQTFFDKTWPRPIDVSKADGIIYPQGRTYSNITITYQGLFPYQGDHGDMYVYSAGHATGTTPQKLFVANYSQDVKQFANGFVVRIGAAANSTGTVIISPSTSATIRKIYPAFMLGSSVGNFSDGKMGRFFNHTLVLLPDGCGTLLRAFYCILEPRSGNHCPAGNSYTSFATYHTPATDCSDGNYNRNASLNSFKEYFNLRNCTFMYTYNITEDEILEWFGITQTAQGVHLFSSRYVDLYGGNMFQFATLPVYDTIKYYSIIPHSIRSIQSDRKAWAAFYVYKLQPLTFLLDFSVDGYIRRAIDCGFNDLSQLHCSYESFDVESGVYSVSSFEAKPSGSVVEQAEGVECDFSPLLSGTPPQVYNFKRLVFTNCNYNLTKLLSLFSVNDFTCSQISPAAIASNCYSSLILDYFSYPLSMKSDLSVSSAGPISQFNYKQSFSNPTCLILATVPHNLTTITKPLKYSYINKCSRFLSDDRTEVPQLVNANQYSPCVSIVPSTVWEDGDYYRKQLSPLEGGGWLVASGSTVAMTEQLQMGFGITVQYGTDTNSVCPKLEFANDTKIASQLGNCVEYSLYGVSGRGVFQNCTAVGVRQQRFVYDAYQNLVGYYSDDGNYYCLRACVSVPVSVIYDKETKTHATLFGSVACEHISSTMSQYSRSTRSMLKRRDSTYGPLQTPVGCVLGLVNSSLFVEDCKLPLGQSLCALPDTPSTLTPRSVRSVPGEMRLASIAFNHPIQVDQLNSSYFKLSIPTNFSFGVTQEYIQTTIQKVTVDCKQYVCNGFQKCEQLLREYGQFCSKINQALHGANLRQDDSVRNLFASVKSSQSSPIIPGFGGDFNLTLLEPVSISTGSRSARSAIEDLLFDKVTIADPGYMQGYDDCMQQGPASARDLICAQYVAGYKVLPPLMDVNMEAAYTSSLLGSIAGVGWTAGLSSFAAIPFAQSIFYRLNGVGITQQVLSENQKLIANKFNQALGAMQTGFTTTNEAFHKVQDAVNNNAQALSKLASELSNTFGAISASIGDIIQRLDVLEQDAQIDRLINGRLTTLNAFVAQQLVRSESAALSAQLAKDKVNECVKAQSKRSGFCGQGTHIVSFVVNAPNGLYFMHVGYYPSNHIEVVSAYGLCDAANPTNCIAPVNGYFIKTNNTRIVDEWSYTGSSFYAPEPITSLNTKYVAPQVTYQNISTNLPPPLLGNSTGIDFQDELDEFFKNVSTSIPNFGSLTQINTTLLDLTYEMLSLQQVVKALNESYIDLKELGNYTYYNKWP
As to the kind of experiment: SPR, Fab over anti-His-captured trimer, 25 C. On the technique in general: SPR reads the build-up and loss of mass on a sensor chip optically.

Assay [8] addresses spike of SARS-CoV-2 Eng20 (WT) (SARS-CoV-2, UniProt P0DTC2 14-1273). Briefly: cell-based or functional assay.

Changes are numbered by the printed parent chain. Where two headings read alike, the source gives them in different places.

B1: Reference Antibody (antibody, V domains shown)
VH: EVQLVESGAEVKKPGESLKISCKGSGYTFTRYWIGWVRQMPGKGLEWMGIIYPGDSDTRYSPSFQGHVTISADKSISTAYLQWNSLKASDTAMYYCARLPQYCSNGVCQRWFDPWGQGTLVTVSS
VL: EIVLTQSPSSVSASVGDRVTITCRASQGISSWLAWYQQKPGKAPKLLIYAASSLQSGVPSRFSGSGSGTDFTLTISSLQPEDFATYYCQQGNSFPYTFGQGTNLEIK
As to B1, the “% neutralization at 4.5 µg/ml, pseudovirus” value in assay [1] turned out to be 94.3%; in assay [2] it was 97.6%. Also, the “IC50, pseudovirus neutralization” value in assay [3] is 0.244 µg/mL; in assay [4], 0.473 µg/mL; in assay [5], 0.0352 µg/mL; in assay [6], 0.0196 µg/mL.

B2: AB-1 Fab (Fab, V domains shown)
VH: B1 VH with T58V, N105K, Q109Y
VL: B1 VL with N92H
As for B2, the binding result in assay [7] is listed as “no binding (tested: 600 nM highest Fab concentration)”.

B3: Reference Antibody Fab (Fab, V domains shown)
VH: B1 VH
VL: B1 VL
Take B3: in assay [7], the binding result is on record as “no binding (tested: 600 nM highest Fab concentration)”.

B4: bebtelovimab (antibody, V domains shown)
VH: QITLKESGPTLVKPTQTLTLTCTFSGFSLSISGVGVGWLRQPPGKALEWLALIYWDDDKRYSPSLKSRLTISKDTSKNQVVLKMTNIDPVDTATYYCAHHSISTIFDHWGQGTLVTVSS
VL: QSALTQPASVSGSPGQSITISCTATSSDVGDYNYVSWYQQHPGKAPKLMIFEVSDRPSGISNRFSGSKSGNTASLTISGLQAEDEADYYCSSYTTSSAVFGGGTKLTVLG
For B4, in assay [8], the “EC50, live virus neutralization” value worked out at 0.0016 µg/mL.

(Values after US20230357367A1 (GENERATE BIOMEDICINES, published 2023).)
